The target in experiment [1] is T1, recombinant human DLL4 extracellular domain, C-terminally His-tagged (R&D Systems) (human, UniProt Q9NR61 25-522, biotinylated in the competition assays (sites not given)).
T1 construct: also called rhDLL4; hDLL4; not shown: C-terminal His tag
In words: periplasmic extract; hDLL4/hNotch1 AlphaScreen. As for the experimental part: To this mixture, the acceptor beads and the streptavidin donor beads are added and further incubated for 1 hour at room temperature. Fluorescence is measured by reading plates on the Envision Multilabel Plate reader (Perkin Elmer, Waltham, Mass., USA) using an excitation wavelength of 680 nm and an emission wavelength of 520 nm.

The target in experiment [2] is T1, recombinant human DLL4 extracellular …. In words: periplasmic extract; hDLL4 ELISA.
Experiment [3] addresses T2, recombinant mouse DLL4 extracellular domain, C-terminally His-tagged (R&D Systems) (mouse, UniProt Q9JI71 27-525).
T2 construct: range 1-525; also called rmDLL4; mDLL4; not shown: C-terminal His tag
The experiment can be described thus: binding ELISA on coated rmDLL4. As for the experimental part:
In order to determine cross-reactivity to mouse DII4 a binding ELISA is performed. […] Wells are blocked with a casein solution (1% in PBS). VHHs are applied as dilution series and binding is detected using a mouse anti-myc (Roche) and an anti-mouse-AP conjugate (Sigma, St Louis, Mo., USA) (FIG. 7).
Background: ELISA stands for enzyme-linked immunosorbent assay.

Experiment [4] has as its target T3, cynomolgus DLL4, full length, overexpressed on cells (cynomolgus, UniProt Q9NR61 27-685 (human entry)).
T3 construct: also called CHO-cDLL4; cDLL4
T3 chain: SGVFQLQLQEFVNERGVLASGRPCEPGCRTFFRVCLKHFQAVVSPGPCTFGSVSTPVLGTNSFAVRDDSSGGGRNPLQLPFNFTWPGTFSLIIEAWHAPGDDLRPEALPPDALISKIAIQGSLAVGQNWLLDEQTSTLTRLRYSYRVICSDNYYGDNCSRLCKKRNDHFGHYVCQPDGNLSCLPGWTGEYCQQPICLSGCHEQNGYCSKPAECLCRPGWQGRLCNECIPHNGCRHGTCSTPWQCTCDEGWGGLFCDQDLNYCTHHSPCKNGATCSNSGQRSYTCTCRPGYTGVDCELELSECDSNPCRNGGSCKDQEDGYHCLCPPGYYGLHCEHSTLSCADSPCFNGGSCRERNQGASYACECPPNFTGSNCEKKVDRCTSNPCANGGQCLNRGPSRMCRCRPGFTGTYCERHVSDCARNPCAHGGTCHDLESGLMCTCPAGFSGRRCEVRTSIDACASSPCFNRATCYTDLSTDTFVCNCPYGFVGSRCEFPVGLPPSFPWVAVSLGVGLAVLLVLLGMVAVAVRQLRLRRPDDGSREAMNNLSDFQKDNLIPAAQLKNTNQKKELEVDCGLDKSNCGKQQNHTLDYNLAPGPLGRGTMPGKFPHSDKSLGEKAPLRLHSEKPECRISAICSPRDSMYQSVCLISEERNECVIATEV
The experiment can be described thus: FACS titration on HEK293-cDLL4 cells. As for the experimental part: In order to determine the cynomologus cross-reactivity of the VHHs, a FACS binding experiment is performed. Cynomolgus DII4 expressing HEK293 cells (transient or stable transfection) are used for a titration binding experiment of the VHHs. After a 30 minutes incubation on ice, all samples are washed and detection is performed by applying anti-c-myc-Alexa647 (Santa Cruz Biotechnology, Santa Cruz, Calif., USA). Human and mouse DII4 overexpressing HEK293 cells are taken as reference. The mean MCF value is determined on the FACS Array and used for calculation of the EC₅₀ value (see FIG. 9).

In experiment [5] the target is T1, recombinant human DLL4 extracellular …. The experiment can be described thus: cell-based or functional assay.
The target of experiment [6] is T4, mouse DLL4, full length, overexpressed on CHO or HEK293 cells (mouse, UniProt Q9JI71 27-686).
T4 construct: whole, on cells; also called CHO-mDLL4; CHO-mDII4
T4 sequence (Q9JI71 27-686): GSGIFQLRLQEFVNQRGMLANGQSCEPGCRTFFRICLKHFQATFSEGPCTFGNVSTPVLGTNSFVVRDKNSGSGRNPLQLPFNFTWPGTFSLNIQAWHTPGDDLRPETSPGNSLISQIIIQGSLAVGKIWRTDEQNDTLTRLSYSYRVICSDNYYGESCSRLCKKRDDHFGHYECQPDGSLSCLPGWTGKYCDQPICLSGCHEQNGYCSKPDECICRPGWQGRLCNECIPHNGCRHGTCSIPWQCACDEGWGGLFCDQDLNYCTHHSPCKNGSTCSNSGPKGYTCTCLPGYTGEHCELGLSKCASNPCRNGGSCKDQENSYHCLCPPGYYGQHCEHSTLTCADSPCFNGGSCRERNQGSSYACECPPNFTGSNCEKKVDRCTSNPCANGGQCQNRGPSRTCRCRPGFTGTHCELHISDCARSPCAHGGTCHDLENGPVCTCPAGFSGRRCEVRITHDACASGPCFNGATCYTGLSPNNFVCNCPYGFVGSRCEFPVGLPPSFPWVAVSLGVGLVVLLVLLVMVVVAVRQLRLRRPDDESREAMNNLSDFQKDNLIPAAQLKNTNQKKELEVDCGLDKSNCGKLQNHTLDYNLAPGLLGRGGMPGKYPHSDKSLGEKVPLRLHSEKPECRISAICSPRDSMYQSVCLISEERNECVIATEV
In words: periplasmic extract; FMAT, Notch1/Fc on CHO-mDLL4. From the text: (§1) All calculations are based on the FL1_total signal which comprises the average of the fluorescence per well times the number of counts per well.

For experiment [7], the target named is T5, human DLL4, full length, overexpressed on CHO or HEK293 cells (human, UniProt Q9NR61 27-685). The experiment can be described thus: cell-based or functional assay.
Experiment [8] has as its target T5, human DLL4, full length, overexpressed …. In words: periplasmic extract; FMAT, Notch1/Fc on CHO-hDLL4.
Source text: as §1

In the next experiment the target is T6, human Ang2 (human, UniProt O15123 19-496, limits assumed).
T6 construct: also called hAng2; human Angiopoietin2
T6 sequence (looked up): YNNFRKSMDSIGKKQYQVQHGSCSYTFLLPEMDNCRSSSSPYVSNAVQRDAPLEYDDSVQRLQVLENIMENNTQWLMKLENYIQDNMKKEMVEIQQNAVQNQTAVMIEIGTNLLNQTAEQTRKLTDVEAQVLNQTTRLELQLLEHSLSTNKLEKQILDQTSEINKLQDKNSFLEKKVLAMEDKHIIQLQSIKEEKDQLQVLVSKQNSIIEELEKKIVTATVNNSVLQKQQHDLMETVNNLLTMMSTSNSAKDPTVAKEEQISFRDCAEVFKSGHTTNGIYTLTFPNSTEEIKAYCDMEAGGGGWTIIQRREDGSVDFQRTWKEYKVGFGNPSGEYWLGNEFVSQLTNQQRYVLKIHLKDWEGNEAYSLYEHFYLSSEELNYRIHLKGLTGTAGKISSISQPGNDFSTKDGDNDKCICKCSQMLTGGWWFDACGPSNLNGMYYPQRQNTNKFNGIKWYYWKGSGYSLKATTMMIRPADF
In words: competition ELISA hAng2/hTie2-Fc. As for the experimental part:
This assay is also performed after incubation of the VHH with 0.5 μM human serum albumin.

The target of experiment [9] is T7, recombinant human Jagged-1 (Alexis) (human, UniProt P78504 34-1067, limits assumed).
T7 construct: also called hJagged-1; hJAG1
In words: rhDLL1/rhJAG1 binding ELISA.

The target in experiment [10] is T8, recombinant human DLL1 (Alexis) (human, UniProt O00548 18-545, limits assumed).
T8 construct: also called hDLL1; rhDLL1
T8 sequence (looked up): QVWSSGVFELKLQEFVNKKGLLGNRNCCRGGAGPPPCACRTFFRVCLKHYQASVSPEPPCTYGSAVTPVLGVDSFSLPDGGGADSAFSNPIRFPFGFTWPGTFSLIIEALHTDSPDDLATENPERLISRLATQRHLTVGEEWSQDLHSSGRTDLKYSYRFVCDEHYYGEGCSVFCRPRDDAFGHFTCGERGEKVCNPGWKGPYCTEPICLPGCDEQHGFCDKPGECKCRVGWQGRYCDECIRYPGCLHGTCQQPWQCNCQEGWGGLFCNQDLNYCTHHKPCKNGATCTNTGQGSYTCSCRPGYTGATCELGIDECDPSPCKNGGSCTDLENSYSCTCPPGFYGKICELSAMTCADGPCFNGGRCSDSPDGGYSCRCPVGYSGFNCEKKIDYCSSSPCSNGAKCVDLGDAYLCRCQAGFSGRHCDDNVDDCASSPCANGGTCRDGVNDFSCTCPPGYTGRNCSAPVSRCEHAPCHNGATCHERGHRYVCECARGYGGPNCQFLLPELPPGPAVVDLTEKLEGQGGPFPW
In words: rhDLL1/rhJAG1 binding ELISA.

The target of experiment [11] is T1, recombinant human DLL4 extracellular …. In words: periplasmic extract; Biacore off-rate.

One may read the % inhibition as the relative decrease from the control value, in per cent. By EC50 (read off the curve) is commonly meant the concentration giving half of the maximal effect. Broadly, the koff is the rate constant with which the complex falls apart.

Where a chain is given by its changes, count along the chain named.

T2 sequence (Q9JI71 27-525 limits assumed): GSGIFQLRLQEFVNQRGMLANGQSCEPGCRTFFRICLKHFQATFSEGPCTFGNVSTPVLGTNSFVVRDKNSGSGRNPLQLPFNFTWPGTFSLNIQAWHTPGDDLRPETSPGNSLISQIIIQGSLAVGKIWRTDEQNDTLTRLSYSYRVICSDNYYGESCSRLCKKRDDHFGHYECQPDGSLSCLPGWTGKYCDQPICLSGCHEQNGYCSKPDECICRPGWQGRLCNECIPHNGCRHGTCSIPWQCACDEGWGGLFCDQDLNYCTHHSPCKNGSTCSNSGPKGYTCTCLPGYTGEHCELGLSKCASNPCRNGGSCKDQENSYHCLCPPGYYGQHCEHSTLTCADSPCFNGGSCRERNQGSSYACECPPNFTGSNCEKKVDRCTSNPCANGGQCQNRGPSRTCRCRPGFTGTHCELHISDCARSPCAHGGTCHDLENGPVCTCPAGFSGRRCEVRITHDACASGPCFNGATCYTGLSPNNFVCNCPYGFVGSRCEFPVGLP

B1: DLLBII17F10 (VHH)
VHH: EVQLVESGGGLVQAGGSLRLSCASSGRTLLNYAMGWFRQAPGKEREFVSGINWSGGSTYYADSVKGRFTISRDNAENTVYLHMNSLKPEDTAVYYCAAAHDNYWFTDDSLGRGLKYWGQGTQVTVSS
notes: not shown: C-terminal c-myc and His6 tags
With B1, the “% inhibition” value came to 88% in experiment [1] and 98% in experiment [2]. In addition, the binding result in experiment [3] was “no binding (tested: 2.5e-7 M)”.

B2: DLLBII101G08 (VHH)
VHH: EVQLVESGGGLVQAGGSLRLSCAASGRTFSSYAMAWFRQAPGKEREFVAAIRWSGGTAYYADSVQGRFTISRDNAKNTVYLQMNSLKPEDTAVYYCANRAADTRLGPYEYDYWGQGTQVTVSS
notes: also called 101G8; DLLBII101G8; not shown: C-terminal c-myc and His6 tags
With B2, the “EC50 (read off the curve)” value in experiment [4] was ~0.008 µM. For the same molecule, in experiment [5], the “concentration giving complete inhibition, HUVEC proliferation assay” value (from here on “concentration giving complete inhibition”) was 10 µM. In addition, the “% inhibition” value in experiment [6] was determined as 92%; in [8], 91%. The “IC50, DLL4/Notch1 reporter assay (luciferase; co-culture with HEK293-hDII4)” value (shortened to “IC50, DLL4/Notch1 reporter assay”) in experiment [7] turned out to be 2.76 µM.

B3: DLLBII55D12 (VHH)
VHH: EVQLVESGGGLVQPGGSLRLSCAASGFTFDDYAIGWFRQAPGKEPEGISCISSSGGITYYADSVKGRFTISRDNAKNTVYLQMNSLKPEDTAVYYCATPGIAACRGIHYTGQGTQVTVSS
notes: as for B1
Regarding B3, in [4], the binding result is listed as “binds”.

B4: DLLBII96C03 (VHH)
VHH: EVQLVESGGGLVQPGGSLRLSCAASGFTFGNYDMSWVRQAPGKGPEWVSAINSGGGDTYYADSVKGRFTISRDNAKNTLYLQMNSLKPEDTAVYYCATPRGWGPTGPHEYGYWGQGTQVTVSS
notes: also called 96CO3; 96C3; not shown: C-terminal c-myc and His6 tags
As to B4, the “% inhibition” value was found to be 83% in experiment [6] and 75% in experiment [8]. Also, the “IC50, DLL4/Notch1 reporter assay” value in experiment [7] was 5.16 µM.

B5: 00045 (VHH)
VHH: EVQLVESGGGLVQPGGSLRLSCAASGFALDYYAIGWFRQAPGKEREGVSCISSSDGITYYADSVKGRFTISRDNSKNTVYLQMNSLRPEDTAVYYCATDSGGYIDYDCMGLGYDYWGQGTLVTVSS
For B5, the “IC50 (read off the curve)” value in the experiment with human Ang2 was ~0.0001 µM.

B6: DLLBII115A05 (VHH)
VHH: EVQLVESGGGLVQPGGSLRLSCAASGFTFGSYDMSWVRRSPGKGPEWVSSINSGGGSTYYADFVKGRFTISRDNAKNTLYLQMNSLKPEDTAVYYCAADRYIRARQGDYWGAYEYDYWGQGTQVTVSS
notes: also called 115A5; DLLBII115A5; not shown: C-terminal c-myc and His6 tags
With B6, the “concentration giving complete inhibition” value in [5] is 10 µM. Further, the “% inhibition” value in experiment [6] came out at 84%; in experiment [8], 74%. In experiment [7], the “IC50, DLL4/Notch1 reporter assay” value was found to be 1.74 µM.

B7: DLLBII136C07 (VHH)
VHH: B6 VHH with F63Y, R103W, D108E
notes: as for B1
With B7, the binding result in experiment [9] and in [10] was “no binding” each time.

B8: DLLBII133G05 (VHH)
VHH: B6 VHH with S50A, A61T, F63Y, R103W, D108E, E114A
notes: as for B1
With B8, the concentration for a half-maximal effect (EC50 (read off the curve)) in experiment [3] is ~0.0005 µM. Further, the binding result in [9] and in [10] was “no binding” each time.

B9: DLLBII104G01 (VHH)
VHH: EVQLVESGGGLVQAGGSLRLSCAASGFTFDDYAIGWFRQAPGKEREGVSCISSSDGSTYYADSVKGRFTISSDNAKNTVYLQMNSLKPEDTAVYYCATAWCDSSWYRSFVGYWGQGTQVTVSS
notes: also called 104G1; DLLBII104G1; not shown: C-terminal c-myc and His6 tags
With B9, the “concentration giving complete inhibition” value in experiment [5] amounted to 10 µM. For the same molecule, the “% inhibition” value was found to be 86% in [6] and 94% in experiment [8]. Further, the “IC50, DLL4/Notch1 reporter assay” value in experiment [7] was found to be 0.964 µM.

B10: DLLBII19D10 (VHH)
VHH: EVQLVESGGGLVQAGDSLRLSCAASGRTVGSYDMSWVRQGPGKEREWVSSINSGVGKTYYADSVKGRFTIFRDNAKNMVYLQMNNLKPEDTAVYYCATEMDGSRYVEGQGTQVTVSS
notes: as for B1
As to B10, the dissociation rate constant (koff) in experiment [11] is 0.0013 s⁻¹. Besides, the entries for the “% inhibition” value in [1] and in experiment [2] were 85% and 98%, respectively.

B11: DLLBII62C11 (VHH)
VHH: EVQLMESGGGLVQPGGSLRLSCVAAGFTFSNYYMSWVRQAPGKGLEWVSVISPDGSNTYYADTVKGRFTISRGNAKNTLFLQMTGLKSEDAAVYYCARGSGSWGVHGQGTQVTVSS
notes: as for B1
Consider B11, for which the “% inhibition” value worked out at 71% in [6] and 74% in experiment [8]. Also, the “IC50, DLL4/Notch1 reporter assay” value in experiment [7] came to 4.66 µM.

Values taken from patent US20130078247A1 (Boehringer Ingelheim, published 2013).
